As usually defined, the Kd is the concentration at which binding is half-saturated. The low end stands for a tighter complex, the high end for a looser complex.

The results in this text go back to patent publication US20230183322A1 (PEKING UNIVERSITY, published 2023).

Sequences and labels used below:
B1: ABU-174 (antibody, V domains shown)
VH: QVQLQQWGAGLLKPSETLSLTCAVYGGSFSDYYWNWIRRPPGKGLEWIGEITHSGSTNYNPSLKSRVTISVDTSKNQFSLKLSSVTAADTAVYYCARGQGYGRVLLWFGEWGQGTLVTVSS
VL: EIVLTQSPATLSLSPGERATLSCRASQSVSTYLAWYQQKPGQAPRLLIYDASNRATGIPARFSGSGSGTDFTLTISSLEPEDFAVYYCQQRSNWITFGQGTRLEIK
B2: ABU-322 (antibody, V domains shown)
VH: EVQLVESGGGLIQPGGSLRLSCAASGVIVSRNYMNWVRQAPGKGLEWVSVIYSGGSTFYADSVKGRFTISRDNSKNTLYLQMNSLRAEDTAVYYCARELRGAFDIWGQGTMVTVSS
VL: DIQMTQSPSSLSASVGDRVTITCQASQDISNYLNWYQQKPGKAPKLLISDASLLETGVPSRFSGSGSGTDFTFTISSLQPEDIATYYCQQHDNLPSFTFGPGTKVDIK
B3: ABU-308 (antibody, V domains shown)
VH: QVQLVQSGAEVKKPGSSVKVSCKASGGTFSSYAISWVRQAPGQGLEWMGGIIPIFGTANYAHKFQGRVTITADESTSTAYMELSSLRSEDTAVYYCATRRGYSGYGAAYYFDYWGQGTLVTVSS
VL: QSVLTQPPSVSGAPGQRVTISCTGSSSNIGAGYDVHWYQQLPGTAPKLLIYGNSNRPSGVPDRFSGSKSGTSASLAITGLQAEDEADYYCQSYDSSLSGSLFGGGTKLTVL
B4: ABU-344 (antibody, V domains shown)
VH: QVQLVQSGAEVKKPGSSVKVSCKASGGTFSSYTISWVRQAPGQGLEWMGRIIPILGIANYAQKFQGRVTITADKSTSTAYMELSSLRSEDTAVYYCARERGYSGSGSLYYFDYWGQGTLVTVSS
VL: QSVLTQPPSVSGAPGQRVTISCTGSNSNIGAGYDVHWYQQLPGTAPKLLIYVNTNRPSGVPDRFSGSKSGTSASLAITGLQAEDEAHYYCQSYDSSLSGSVFGGGTKLTVL
B5: ABU-190 (antibody, V domains shown)
VH: EVQLVESGGGLIQPGGSLRLSCAASGITVSSNYMSWVRQAPGKGLEWVSVIYSGGSTDYADSVKGRFTISRDKSKNTLYLQMNSLRAEDTAVYYCARDLGEAGGMDVWGQGTTVTVSS
VL: AIQLTQSPSSLSASVGDRVTITCRASQGISSYLAWYQQKPGKAPKLLIYAASTLQSGVPSRFSGSGSGTDFTLTISSLQPEDFATYYCQQLNSYPPAFGGGTKVEIK
B6: ABU-290 (antibody, V domains shown)
VH: QVQLVQSGAEVKKPGASVKVSCKASGFTFGRHGITWVRQAPGQGLEWMGWISTYSGNTNYAQNLQGRVTMTTDTSTNTAYMELRSLFFDDTAVYYCAKAVSGWPIYFDAWGQGTLVTVSS
VL: EIVMTQSPATLSVSPGERVTLSCRASQSINRNLAWYQQKPGQAPRLLVYDASTRAPGIPTRVSGSGSGTDFTLTISSLQSEDFAVYYCQQYNNWPPITFGQGTRLEIQ
B7: ABU-291 (antibody, V domains shown)
VH: QIQLVQSGAEVKKPGASVRVSCKASGFTFGRYGITWVRQVPGQGLEWMGWISTYSGNTNYAQNLQGRVTMTTDTSTNTAYMELRSLFFDDTAMYYCAKAVSGWPIYFDAWGQGTLVTVSS
VL: EIVMTQSPATLSVSPGERVTLSCRASQSVNRNLAWYQQKPGQAPRLLVYDASTRAPGIPTRVRGSGSGTDFTLTISSLQSEDFAVYYCQQYNNWPPITFGQGTRLEIQ
B8: ABU-208 (antibody, V domains shown)
VH: QVQLVESGGGVVQPGRSLRLSCVASGFTFSNYDMHWVRQAPGKGLEWVTVISSDGNNRRYADSVKGRFTISRDNSKNMLYLQMNSLKAEDTAVYYCARDEVIAVATGEGMDVWGQGTTVTVSP
VL: EIVMTQSPAILSVSPGERATLSCRASQSVTRNLAWYQQKPGQAPRLLIYGASTRATNIPARFSGSGFGTEFTLIISSLQSEDFAVYYCQQYSNWPLYTFGQGTKLEIK
B9: ABU-257 (antibody, V domains shown)
VH: EVQLVESGGGLIQPGGSLRLSCAASGFTVSSNYMSWVRQAPGKGLEWVSVIYSGGSTYYADSVKGRFTISRDNSKNTLYLQMNSLRAEDTAVYYCARVTRAGAAGDGGAFDIWGQGTMVTVSS
VL: QSALTQPASVSGSPGQSITISCTGTSSDVGSYNLVSWYQQHPGKAPKLMIYEVSKRPSGVSNRFSGSKSGNTASLTISGLQAEDEADYYCCSYAGSSLWVFGGGTKLTVL
B10: ABU-346 (antibody, V domains shown)
VH: EAQLLESGGGLVQPGGSLRLSCAVSGFTVSSYDMSWVRQAPGKRLEWVSFISARGSVTYYADSVRGRFTISRDNFKNTLYVEMNNLRVEDTAVYYCAKGHWSTWGQGTLVTVSS
VL: DVVLTQSPLSLPVTLGQPASISCRSSHSLVYSDGYTHLHWIQERPGQSPRRLIYSVSHRDSGVPDRFSGSGSATDFTLQISRVEAEDVGVYYCMQGSHWPWTFGQGTKVEIK
B11: ABU-320 (antibody, V domains shown)
VH: QVQLVESGGGVVQPGRSLRLSCAASGFTFSSYATHWVRQAPGKGLEWVAVISYDGSNKYHADSVKGRFTISRDNSKNTLYLQMNSLRAEDTAVYYCAREWSRGAVAGTGYFDYWGQGTLVTVSS
VL: SYVLTQPPSVSVAPGKTARITCGGNNIGSKSVHWYQQKPGQAPVLVVYDDSDRPSGIPERFSGSNSGNTATLTISRVEAGDEADYYCQVWDSSGDHWVFGGGTKLTVL
B12: ABU-329 (antibody, V domains shown)
VH: EVQLVESGGGLVQPGGSLRLSCAASGFTFSSYWMHWVRQAPGKGLVWVSRIKSDGSSTSYADSVKGRFTISRDNAKNTLYLQMNSLRAEDTAVYYCAGKKIYYGSSFDPWGQGTLVTVSS
VL: NFMLTQPHSVSESPGKTVTISCTRSSGSIASNYVQWYQQRPGSAPTTVIYEDNQRPSGVPDRFSGSIDSSSNSASLTISGLKTEDEADYYCQSYDSSNQVFGGGTKLTVL
B13: ABU-390 (antibody, V domains shown)
VH: EVQLVESGGGLVQPGGSLRLSCAASGFTFSSYDMHWVRQATGKGLEWVSVIGTAGDTYYPGSVKGRFTISRENAKNSLYLQMNSLRAGDTAVYYCARDRDNGSGSYLGWAFDIWGQGTMVTVSS
VL: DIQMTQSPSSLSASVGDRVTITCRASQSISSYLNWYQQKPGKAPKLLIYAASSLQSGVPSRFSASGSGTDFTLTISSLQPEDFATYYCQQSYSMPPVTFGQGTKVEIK
B14: ABU-383 (antibody, V domains shown)
VH: EVQLVESGGGLVQPGGSLRLSCAASGFTVSSNYMSWVRQAPGKGLEWVSLIYSGGSTYYADSVKGRFTISRDNSKNTLYLQMNSLRAEDTAVYYCARDRPAAAIRFGQGTLVTVSS
VL: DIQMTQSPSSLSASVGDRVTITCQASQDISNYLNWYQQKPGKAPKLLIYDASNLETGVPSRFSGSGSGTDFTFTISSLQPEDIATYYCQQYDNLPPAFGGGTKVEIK
B15: ABU-330 (antibody, V domains shown)
VH: QVQLQESGPGLVKPSQTLSLTCTVSGGSISSGGYYWSWIRQHPGKGLEWIGYIYYSGSTYYNPSLKSRVTISVDTSKNQFSLKLSSVTAADTAVYYCARGGSGSGWYGGRFDYWGQGTLVTVSS
VL: EIVLTQSPATLSLSPGERATLSCRASQSVSSYLAWYQQKPGQAPRLLIYDASNRATGIPARFSGSGSGTDFTLTISSLEPEDFAVYYCQQRSNWLFTFGPGTKVDIK
B16: ABU-337 (antibody, V domains shown)
VH: QVQLVESGGGVVQPGRSLRLSCAASGFTFSTSAMHWVRQAPGKGLEWVAGISYDGSNEHLDSVKGRFTISRDNSKNTLYLQMSSLRPEDTAVYYCARCPFWNYGHCYLDNWGQGTLVTVSS
VL: EIVLTQSPATLSLSPGERATLSCRASQSVSSYLAWYQQKPGQAPRLLIFDASNRATGIPARFSGSGSGTDFTLTISSLEPEDFAVYYCQQRNKWPGTFGQGTKVEIK
B17: ABU-339 (antibody, V domains shown)
VH: EMQLLESGGGLVQPGGSLRLSCAASGFTFFSYALSWVRQAPGKGLEWVSGISGISDSGGNTYYADSVKGRFTISRDNSQNMLYLQMNSLRVEDTAVYYCAKERRPVLRYFDWLPIEAPDYWGPGTLVTVSS
VL: AIQLTQSPSSLSASVGDRVTITCRASQGISSSLAWYQQKPGKAPKLLIYSASTLQSGVPSRFSGSGSGTDFTLTITSLQPEDFATYYCQQLNSYPLTFGGGTKVEIK
B18: ABU-343 (antibody, V domains shown)
VH: QVQLVQSGAEVKKPGASVKVSCKASGYTFTNYYMHWMRQAPGQGLEWMGIINPSGGSTSYAHQFQGRVTMTRDTSTSTVYMEMSSLRSEDTAVYFCVVGIGYCSSPSCPPLRWFDYWGQGTLVTVSS
VL: AIQLTQSPSSLSASVGDRVTITCRASQGISSALAWYQQKPGKAPKVLIYDASGLQSGVPSRFSGGGSGTDFTLTISSLQPEDFATYYCQQFNDYPLTFGGGTKVEIK
B19: ABU-348 (antibody, V domains shown)
VH: QVQLVESGGGVVQPGKSLRLSCAASGFTFSSYGMHWVRQAPGKGLEWVAVISNYGSNKYHADSVKGRITISRDNSKNTLYLQMNSLRAEDTAVYYCAKGGYYDILTGYFPFDYWGQGTLVTVSS
VL: QSALTQPRSVSGSPGQSVTISCTGTSSDVGGYNYVSWYQQYPGKAPKLMIYEVSKRPSGVPDRFSGSKSGNTASLTISGLQAEDEADYYCCSYAGSYTWVFGTGTKVTVL
B20: ABU-325 (antibody, V domains shown)
VH: EVQLVESGGGLIQPGGSLRLSCAASGFTVSSNYMSWVRQAPGKGLEWVSVIYSGGSTYYADSVKGRFTISRDNSKNTLYLQMNSLRAEDTAVYYCARDRRVGSPYYYYYMDVWGKGTTVTVSS
VL: QTVVTQEPSLTVSPGGTVTLTCASSTGAVTSGYYPNWFQQKPGQAPRALIYSTSNKHSWTPARFSGSLLGGKAALTLSGVQPEDEAEYYCLLYYGGAPVFGGGTKLTVL
B21: ABU-384 (antibody, V domains shown)
VH: EVQLVESGGGLVQPGGSLRLSCAASGFTVSSNYMSWVRQAPGKGLEWVSIIYSGGSTYYADSVKGRFTISRDNSKNTLYLQMNSLRAEDTAVYYCARDYAGRVWGQGTLVTVSS
VL: DIQMTQSPSSLSASVGDRVTITCQASQDIRSYLNWYQQKPGKAPKLLIYDASNLETGVASRFSGSGSGTDFTFTISSLQPEDIATYYCQQYDNLPQTFGQGTKLEIK
B22: ABU-385 (antibody, V domains shown)
VH: EVQLVESGGGLVQPGGSLRLSCAASGFTVSSNYMSWVRQAPGKGLEWVSVIYSGGSTYYADSVKGRFTISRDNSKNTLYLQMNSLRAEDTAVYYCARELSYSSSSGVGPKYWGQGTLVTVSS
VL: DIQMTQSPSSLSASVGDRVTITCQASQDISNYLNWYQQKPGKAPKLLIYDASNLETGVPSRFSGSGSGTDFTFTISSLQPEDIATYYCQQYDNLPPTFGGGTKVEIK

The first assay deals with S protein of the novel coronavirus SARS-CoV-2 (SARS-CoV-2, UniProt P0DTC2 14-1273). The experiment in a line: cell-based or functional assay.
For B1, the “IC50 for neutralizing SARS-CoV-2 pseudovirus (Huh-7 cells, luciferase)” value (“IC50” for short) is less than 0.1 µg/mL. On to B2, for which the “IC50” value is less than 0.1 µg/mL. Same read-out and setting: then B3, with less than 0.5 µg/mL; and B4, with less than 1 µg/mL; and B5, with less than 0.1 µg/mL. Consider B6, for which the “IC50” value is less than 0.1 µg/mL.

As to B7, the “IC50” value is less than 0.5 µg/mL.

For B8, the “IC50” value is less than 0.5 µg/mL. In the case of B9, the “IC50” value was less than 0.5 µg/mL.

For a further assay, the target named is biotin-labeled SARS-COV-2 RBD domain (SARS-CoV-2, UniProt P0DTC2 319-541). The experiment in a line: SPR, Biacore T200, biotin-RBD on SA chip, antibody as analyte.
In turn, B10 came in with a dissociation constant Kd of less than 10 nM.

The molecule B11 registered a Kd of less than 10 nM. Take B12: the Kd was less than 10 nM.

Take B13: the Kd is less than 10 nM. Still for that read-out and setting: then B14, with less than 20 nM; and B15, with less than 10 nM. Regarding B16, the dissociation constant (Kd) was less than 20 nM. On the same count and under the same terms, then B17, with less than 20 nM.

Consider B18, for which the Kd is less than 20 nM.

As to B19, the Kd is less than 10 nM. Still for that read-out and setting: then B8, with less than 1 nM; and B20, with less than 10 nM; and B21, with less than 20 nM. The same measure, in the same setting: then B22, with less than 20 nM; and B9, with less than 10 nM.
